Results published in PMC9929448.

Tests used:
[1] = target: BMP-2 N102D mutant, mature form (human)
[2] = target: T1, Bone morphogenetic protein 2 (BMP-2), wild type, mature form (human)
T1 sequence (P12643 whole entry, looked up): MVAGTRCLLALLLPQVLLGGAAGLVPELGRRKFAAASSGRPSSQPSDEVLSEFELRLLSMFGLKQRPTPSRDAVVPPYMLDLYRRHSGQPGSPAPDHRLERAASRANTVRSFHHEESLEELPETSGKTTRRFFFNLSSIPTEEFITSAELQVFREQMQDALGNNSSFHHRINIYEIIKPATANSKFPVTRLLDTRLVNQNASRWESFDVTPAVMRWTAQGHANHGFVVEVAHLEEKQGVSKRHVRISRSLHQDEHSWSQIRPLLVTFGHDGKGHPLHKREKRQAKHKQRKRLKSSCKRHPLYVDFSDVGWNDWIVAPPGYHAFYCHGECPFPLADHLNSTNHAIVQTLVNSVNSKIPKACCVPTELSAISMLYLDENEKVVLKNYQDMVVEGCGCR

- IC50 of Noggin (0.16 to 160 nM) on ALP activity and Alizarin Red staining (calcium deposition) of ATDC5 cells stimulated with 10 nM N102D BMP-2, day 7 [1]: 8 nM
- IC50 of Noggin (0.16 to 160 nM) on ALP activity and Alizarin Red staining (calcium deposition) of ATDC5 cells stimulated with 10 nM WT BMP-2, day 7 [2]: 8 nM
B1: Noggin (residues 28-232) (natural protein)
chain: MQHYLHIRPAPSDNLPLVDLIEHPDPIFDPKEKDLNETLLRSLLGGHYDPGFMATSPPEDRPGGGGGAAGGAEDLAELDQLLRQRPSGAMPSEIKGLEFSEGLAQGKKQRLSKKLRRKLQMWLWSQTFCPVLYAWNDLGSRFWPRYVKVGSCFSKRSCSVPEGMVCKPSKSVHLTVLRWRCQRRGGQRCGWIPIQYPIISECKCSC
modifications: biotin (biotinylated Noggin in the BLI experiments); methionine oxidation, mainly on the N-terminal methionine, in part of the sample
